Reference: US20210060185A1

Biological target: T1, GvpA of Anabaena flos-aquae (primary shell protein of the gas vesicle) (Anabaena flos-aquae) (UniProt P10397)
T1 sequence: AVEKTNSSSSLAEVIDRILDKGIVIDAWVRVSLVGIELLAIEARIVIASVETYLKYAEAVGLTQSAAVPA
Test: cell-based or functional assay

nonlinear ultrasound contrast of Nissle cells expressing ASGClpXP, with against without aTc induction of WT GvpC: 10 dB
B1: WT Ana GvpC (under pTet promoter) (protein)
chain: MISLMAKIRQEHQSIAEKVAELSLETREFLSVTTAKRQEQAEKQAQELQAFYKDLQETSQQFLSETAQARIAQAEKQAQELLAFHKELQETSQQFLSATAQARIAQAEKQAQELLAFYQEVRETSQQFLSATAQARIAQAEKQAQELLAFHKELQETSQQFLSATADARTAQAKEQKESLLKFRQDLFVSIFG
